± gives the uncertainty stated by the source.
Experiment: amyloid nucleation score (Sup35N fusion, yeast selection) (log enrichment); library NNK3; higher = more nucleation; inactive = no reads after selection
Method in brief: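 Three technical output replicates were used for random libraries. Psi-negative yeast expressing peptides of 20 random codons fused to Sup35N were induced with 100 μM copper sulfate for 24 hours and grown 7 days at 30°C on medium lacking adenine and uracil, and input and output plasmid inserts were Illumina-sequenced, excluding sequences with under 100 input reads. The nucleation score is the DiMSum log enrichment of output over input reads, centred on the mode score of non-aggregating sequences.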

Substance	amyloid nucleation score
SYSISDDLVTNHVPQNST	inactive
SYSSGSSNNKS	inactive
SYTIVERAIRWYPPT	0.966 ± 0.11
SYTKDVV	inactive
SYVICGLYIFGCIFRSFTLP	inactive
SYWLCEVMTLYFFNCFYVLG	inactive
TASCEYFELQPIKNLH	inactive
TAVLH	inactive
TCAVKMVRSWCNIPINSFQA	inactive
TCCYRYYLLILAVSGVFIDT	inactive
TCFLRRFYWRYSGFYATAHY	inactive
TCFSYLIFSCGFHSY	0.404 ± 0.64
TCHLILRVFGSYNMHGS	-0.024 ± 0.96
TCLNGLVESRLAGFYHLRGP	inactive
TCLVGHDKKIDFIV	inactive
TCLVSNYVAYIWGNEFFAAS	2.19 ± 0.053
TCMYLRDHR	-0.337 ± 0.98
TCQILRYIRSLLRMLIWCYY	-0.418 ± 0.8
TCSISIRAGLVLNPCWSDYA	inactive
TCSSACFVENRDTNHNGHGG	inactive
TCSSINTLLKYMFLSISLFR	inactive
TCVLLCDVFFHGLVLDLKLV	inactive
TCVMPGVSQLRFGYWVWICR	inactive
TCVNLIMKIECFLYYGFLCP	inactive

Substance	amyloid nucleation score
TCWLVFSSFPINKLVLRNKT	inactive
TDMIQYKHRLYTIILSNYAR	inactive
TDRLGCSFELCAPTCKCAGV	inactive
TDVISRMMRGGQVLCMCKQC	inactive
TEDGPYTIWH	inactive
TEGAYRSW	inactive
TEPRMLGMCPAVVERMRVEG	inactive
TEYVMSQNHLKQW	inactive
TFAFYLTILMSMFDRYFTWP	inactive
TFCGFKP	inactive
TFDFPHIRRLEFKFAI	inactive
TFKPDQYRFVHEYSTMRVLM	inactive
TFLYTFWVLMACSELV	inactive
TFRICADMCCTGVR	1.45 ± 0.11
TFRVNMCNPLMLGYVLFWLD	inactive
TFYDNLSDRLFSWS	inactive
TGFLGWDACGALRIFLTVRW	inactive
TGHSQSLVVLTCWCVLFHAR	inactive
TGKYRAVVLAC	inactive
TGMNNFMKCLGYMSAHVRLI	inactive
TGPMGI	inactive
TGQLSSQPIIQISREPIAFT	inactive
TGSLWRNHCLVVPQVRYGRK	-0.017 ± 0.5
TGSVFVKDGTLWPTCVDLIG	inactive

Substance	amyloid nucleation score
TGTFDRWDPVTAGLPTGLGE	inactive
TGVKQCSTFTVFIFAGPVEI	1.74 ± 0.1
TGYYWFLFWNMWDWHVCGSS	inactive
THNVSKKWLVGVMCINSGRH	1.59 ± 0.099
TIATLRF	inactive
TICCSDLVVEDHG	inactive
TICPTFPVGGMNISNGSYTM	inactive
TIEIGSLYTITM	-0.251 ± 0.45
TIFEAA	inactive
TIFFMYWLSPGFSPPI	0.148 ± 0.39
TIFKRSPACYYNGIHLWVTF	inactive
TIGDACFVGKEAWAFANWEY	inactive
TIIFRSYVELVDELWLDAAL	inactive
TILGDFVFVFILKVCFTYHR	-0.806 ± 1.3
TISFGMMHLAIDWVIVN	inactive
TITLFSSWGSV	0.612 ± 0.22
TIVRY	1.1 ± 0.21
TKAYGCIHTDRRDSQLKFSA	inactive
TKCLLFFNRGCR	1.1 ± 0.14
TKIEVNS	inactive
TKLWFCNFCYSLDAGIGKCV	2.37 ± 0.077
TKVFS	inactive
TLAIGLIDEFRLHA	1.09 ± 0.13
TLDFGF	inactive

Substance	amyloid nucleation score
TLIQFSLMCVYFSDFLPKAF	inactive
TLLFDPMLNA	inactive
TLNMEFIQFTRSFGKSISPC	inactive
TLSHIGGIEGFINGCLSVGP	inactive
TLSMSWDLTKHFAVVTESRG	inactive
TLSRFPLGNCF	inactive
TLSYVCTNAGGSVFMTCLFF	-0.104 ± 0.58
TLTSYEKIPSMSLSG	inactive
TLVGTFYSMQRSDRIWR	0.475 ± 0.69
TLYVIGLPFDLALMGI	inactive
TMDTYSVPPHNFGMLCYGL	inactive
TMIFYYRYRLVCDGLFFCGT	0.034 ± 0.48
TMLVFGIVNTLVVDNLRSSI	2.01 ± 0.094
TMMACEANWYRSKNIEFVYA	inactive
TMYSLD	inactive
TNANRIGMGYDMNNYSTHYR	inactive
TNCCTCVMEASGNEGIGTLN	0.367 ± 0.23
TNFAYMQREGS	inactive
TNITWYTRVLNGLYYTM	inactive
TNKASLFSPAEHIYGKS	inactive
TNLLRTGNASSWMFKRGVEC	inactive
TNNINALMLAIPINEYVVGH	inactive
TNNQNSDRFGVTVPSLTFVR	inactive
TNPMYK	inactive

Substance	amyloid nucleation score
TNPTVYWDRGMVGCKKLRAH	inactive
TNRFIFPFLNVTHAVLFIFT	1.02 ± 0.19
TNTYF	inactive
TNVSPLTPNT	inactive
TPEVISSV	inactive
TPGSYLGYCIPRFIGLQYDP	inactive
TPLESGLSI	inactive
TPLFHWKNQVSRSFLVWNDL	inactive
TPLGLEWYSSREWGISNLWT	inactive
TPSSCSTLCQTDMQDQWRVG	inactive
TPYGRIFWADDIFNSVAICL	inactive
TQDIKLFHRMDFQLSIKMNS	inactive
TQLLMEFSTVSALDITPCDG	inactive
TQNGGVNVIRFYLCDFLSGL	2.87 ± 0.067
TRFLATECITSDEVVYWVTM	inactive
TRLDGHTYMFTL	inactive
TRLRSTPVLVVNW	inactive
TRMSGRHLCVITACLLTLNC	0.576 ± 0.15
TRSGST	inactive
TRVDLLYRSRNDGIVFFSRF	0.773 ± 0.2
TRVFTGKQPENDRET	inactive
TRWQRCSAIPPVGEA	inactive
TSDQSESISLFRYI	inactive
